{"source": "paper PMC2801813", "about": "(Biochemistry, 2009)", "proteins": {"B1": {"name": "OxDC (oxalate decarboxylase) (Bacillus subtilis subsp. subtilis str. 168; E101Q/E280Q) (protein)", "chain": "MKKQNDIPQPIRGDKGATVKIPRNIERDRQNPDMLVPPETDHGTVSNMKFSFSDTHNRLEKGGYAREVTVRELPISENLASVNMRLKPGAIRELHWHKEAQWAYMIYGSARVTIVDEKGRSFIDDVGEGDLWYFPSGLPHSIQALEEGAEFLLVFDDGSFSENSTFQLTDWLAHTPKEVIAANFGVTKEEISNLPGKEKYIFENQLPGSLKDDIVEGPNGEVPYPFTYRLLEQEPIESEGGKVYIADSTNFKVSKTIASALVTVEPGAMRELHWHPNTHQWQYYISGKARMTVFASDGHARTFNYQAGDVGYVPFAMGHYVENIGDEPLVFLEIFKDDHYADVSLNQWLAMLPETFVQAHLDLGKDFTDVLSKEKHPVVKKKCSK"}, "B2": {"name": "OxDC (oxalate decarboxylase) (Bacillus subtilis subsp. subtilis str. 168; E101Q) (protein)", "chain": "B1 chain with Q280E"}, "B3": {"name": "OxDC (oxalate decarboxylase) (Bacillus subtilis subsp. subtilis str. 168; E101D) (protein)", "chain": "B1 chain with Q101D, Q280E"}, "B4": {"name": "OxDC (oxalate decarboxylase) (Bacillus subtilis subsp. subtilis str. 168; E280A) (protein)", "chain": "B1 chain with Q101E, Q280A"}, "B5": {"name": "OxDC (oxalate decarboxylase) (Bacillus subtilis subsp. subtilis str. 168; E280Q) (protein)", "chain": "B1 chain with Q101E"}, "B6": {"name": "OxDC (oxalate decarboxylase) (Bacillus subtilis subsp. subtilis str. 168; E280D) (protein)", "chain": "B1 chain with Q101E, Q280D"}, "B7": {"name": "OxDC (oxalate decarboxylase) (Bacillus subtilis subsp. subtilis str. 168; E101A) (protein)", "chain": "B1 chain with Q101A, Q280E"}, "B8": {"name": "recombinant, wild-type Bacillus subtilis oxalate decarboxylase (enzyme, UniProt O34714 1-385, looked up)", "chain": "B1 chain with Q101E, Q280E"}}, "key": {"purified protein": {"substrate": "O=C(O)C(=O)O", "assay": "purified protein", "settings": "buffer and temperature same"}, "SEC": {"biological_target": "the molecule itself", "assay": "SEC"}}, "note": "Changes are numbered by the printed parent chain. Names and notes keep the numbering of the source. Values joined by “and” are separate entries in the source; they are usually repeats but may differ in a detail not shown here. Equal entries are not always repeated.", "data": [{"protein": "B1", "values": [{"measurement": "Km", "setting": "purified protein; 0.07 Mn/monomer", "result": "2.9 ± 0.3", "unit": "mM"}, {"measurement": "kcat", "setting": "purified protein; 0.07 Mn/monomer", "result": "0.012 ± 0.0003", "unit": "s⁻¹"}, {"measurement": "kcat/Km", "setting": "purified protein; 0.07 Mn/monomer", "result": 4, "unit": "M⁻¹ s⁻¹"}]}, {"protein": "B2", "values": [{"measurement": "Km", "setting": "purified protein; 0.11 Mn/monomer", "result": "4.0 ± 0.2", "unit": "mM"}, {"measurement": "kcat", "setting": "purified protein; 0.11 Mn/monomer", "result": "0.62 ± 0.01", "unit": "s⁻¹"}, {"measurement": "kcat/Km", "setting": "purified protein; 0.11 Mn/monomer", "result": 155, "unit": "M⁻¹ s⁻¹"}]}, {"protein": "B3", "values": [{"measurement": "Km", "setting": "purified protein; 0.09 Mn/monomer", "result": "3.4 ± 0.1", "unit": "mM"}, {"measurement": "kcat", "setting": "purified protein; 0.09 Mn/monomer", "result": "0.49 ± 0.01", "unit": "s⁻¹"}, {"measurement": "kcat/Km", "setting": "purified protein; 0.09 Mn/monomer", "result": 144, "unit": "M⁻¹ s⁻¹"}]}, {"protein": "B4", "values": [{"measurement": "Km", "setting": "purified protein; 0.67 Mn/monomer", "result": "3.0 ± 0.2", "unit": "mM"}, {"measurement": "kcat", "setting": "purified protein; 0.67 Mn/monomer", "result": "0.019 ± 0.001", "unit": "s⁻¹"}, {"measurement": "kcat/Km", "setting": "purified protein; 0.67 Mn/monomer", "result": 6, "unit": "M⁻¹ s⁻¹"}]}, {"protein": "B5", "values": [{"measurement": "Km", "setting": "purified protein; 0.73 Mn/monomer", "result": "10.1 ± 0.6", "unit": "mM"}, {"measurement": "kcat", "setting": "purified protein; 0.73 Mn/monomer", "result": "0.62 ± 0.01", "unit": "s⁻¹"}, {"measurement": "kcat/Km", "setting": "purified protein; 0.73 Mn/monomer", "result": 61, "unit": "M⁻¹ s⁻¹"}]}, {"protein": "B6", "values": [{"measurement": "Km", "setting": "purified protein; 0.64 Mn/monomer", "result": "5.4 ± 0.4", "unit": "mM"}, {"measurement": "kcat", "setting": "purified protein; 0.64 Mn/monomer", "result": "0.14 ± 0.01", "unit": "s⁻¹"}, {"measurement": "kcat/Km", "setting": "purified protein; 0.64 Mn/monomer", "result": 26, "unit": "M⁻¹ s⁻¹"}]}, {"protein": "B7", "values": [{"measurement": "Km", "setting": "purified protein; 0.18 Mn/monomer", "result": "2.9 ± 0.3", "unit": "mM"}, {"measurement": "kcat", "setting": "purified protein; 0.18 Mn/monomer", "result": "0.046 ± 0.002", "unit": "s⁻¹"}, {"measurement": "kcat/Km", "setting": "purified protein; 0.18 Mn/monomer", "result": 16, "unit": "M⁻¹ s⁻¹"}]}, {"protein": "B8", "values": [{"measurement": "stoichiometry N", "setting": "SEC", "result": "6 and 12 monomers to 18 monomers (2×)"}]}]}
